Assay results reported in patent US20250368734A1 (ANTENGENE BIOLOGICS, published 2025).

T1: mouse GPRC5D (mouse, UniProt Q9JIL6 1-344)
T1 construct: whole, on cells; HEK293T-mGPRC5D cells; also called mGPRC5D; murine GPRC5D
T1 sequence (looked up): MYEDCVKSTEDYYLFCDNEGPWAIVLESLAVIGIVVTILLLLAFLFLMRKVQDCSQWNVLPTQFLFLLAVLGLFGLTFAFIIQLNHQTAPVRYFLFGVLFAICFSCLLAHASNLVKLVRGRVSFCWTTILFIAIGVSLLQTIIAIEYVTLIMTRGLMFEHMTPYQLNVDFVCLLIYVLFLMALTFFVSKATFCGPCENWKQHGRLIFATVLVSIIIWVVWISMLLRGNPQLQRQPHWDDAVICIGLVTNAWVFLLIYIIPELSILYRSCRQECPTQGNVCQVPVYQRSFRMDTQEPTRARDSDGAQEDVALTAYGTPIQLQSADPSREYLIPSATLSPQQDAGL


Tests used:
mouse GPRC5D [1] = biological target: T1, mouse GPRC5D; experiment: FACS, HEK293T-mGPRC5D cells
human GPRC5D [2] = biological target: T2, human GPRC5D (human, UniProt Q9NZD1 1-345); experiment: FACS, CHOS-hGPRC5D cells
T2 construct: whole, on cells; also called hGPRC5D; G-protein coupled receptor family C group 5 member D

cynomolgus monkey GPRC5D [3] = biological target: T3, cynomolgus monkey GPRC5D (cynomolgus monkey); experiment: FACS, HEK293T-cynoGPRC5D cells
T3 construct: whole, on cells; HEK293T-cynoGPRC5D cells; also called cynoGPRC5D

cynomolgus monkey GPRC5D [4] = biological target: T3, cynomolgus monkey GPRC5D; experiment: FACS, HEK293T-cynoGPRC5D cells; remark: listed apart in the source
Text: (§1) The subcloning plates were screened by Mirrorball assay and the subclones with good binding ability were expanded to 24-wells for confirmation tests. The specificity and cross-reactivity of these subclones were confirmed with FACS analysis. Briefly, parental HEK293T, HEK293T cells stably over-expressing human GPRC5D protein (i.e., HEK293T-hGPRC5D), HEK293T cells stably over-expressing cynomolgus monkey GPRC5D protein (i.e., HEK293T-cynoGPRC5D), HEK293T cells stably over-expressing mouse GPRC5D protein (i.e., HEK293T-mGPRC5D), and OPM2 cells were incubated with antibodies produced by each subclone, respectively. Fluorescent dye-conjugated secondary antibody was used to detect the binding of the primary antibody with the cells. Median fluorescence intensity (MFI) was measured by FACS analysis,
(§2) As a result, 21 antibodies were discovered with unique sequences showing positive binding with HEK293T-hGPRC5D and OPM2 cells. Among which, some clones could also bind with HEK293T-cynoGPRC5D and/or HEK293T-mGPRC5D. […] ATG596 was a positive human IgG1 control antibody which comprises a VH region having an amino acid sequence as set forth in SEQ ID NO: 199, and a VL region having an amino acid sequence as set forth in SEQ ID NO: 200.

human GPRC5D [5] = biological target: T2, human GPRC5D; experiment: FACS, OPM-2 cells
Text: as §1, §2

mouse GPRC5D [6] = biological target: T1, mouse GPRC5D; experiment: FACS, HEK293T-mGPRC5D cells; remark: listed apart in the source
Text: as §1, §2

human GPRC5D [7] = biological target: T2, human GPRC5D; experiment: FACS, HEK293T-hGPRC5D cells
Text: as §1, §2

T2 sequence (Q9NZD1 whole entry): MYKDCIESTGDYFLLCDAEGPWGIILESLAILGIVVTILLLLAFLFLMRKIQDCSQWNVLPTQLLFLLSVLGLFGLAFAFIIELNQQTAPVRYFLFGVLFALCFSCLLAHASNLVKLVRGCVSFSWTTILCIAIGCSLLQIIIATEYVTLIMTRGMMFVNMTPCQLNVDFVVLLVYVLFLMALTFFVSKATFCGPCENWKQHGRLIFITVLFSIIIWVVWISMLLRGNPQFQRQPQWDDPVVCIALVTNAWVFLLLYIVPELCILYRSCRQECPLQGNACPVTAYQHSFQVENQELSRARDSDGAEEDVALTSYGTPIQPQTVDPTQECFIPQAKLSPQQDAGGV

Binder	EC50 (mouse GPRC5D [1]) [nM]	Top (mouse GPRC5D [1])	EC50 (human GPRC5D [2]) [nM]	Top (human GPRC5D [2])	EC50 (cynomolgus monkey GPRC5D [3]) [nM]	Top (cynomolgus monkey GPRC5D [3])	% Positive (cynomolgus monkey GPRC5D [4]) [%]	MFI (cynomolgus monkey GPRC5D [4])	% Positive (human GPRC5D [5]) [%]	MFI (human GPRC5D [5])	% Positive (mouse GPRC5D [6]) [%]	MFI (mouse GPRC5D [6])	% Positive (human GPRC5D [7]) [%]	MFI (human GPRC5D [7])
87A3G8 (antibody, V domains shown, Mouse monoclonal antibody from hybridoma subclone) VH: QVQLKESGPGLVAPSQSLSITCTVSGFSLSSYSVYWVRQPPGKGLEWLGVIWAGGSTNYNSALMSRLSINKDKSKSQVFLKMNSLQTDDSAIYYCAMRWLPRGLDFWGQGTSVTVSS VL: DIVMTQSHKFMSTSVGDRVSITCKASQDVGTAVAWYQQKPGQSPKLLIYWASTRHTGVPDRFTGSGSGTDFTLTISNVQSEDLADYFCQQYSTYYTFGGGTKLEIK							76.7	3960	92.7	451	46.2	178	88.6	7380
ch87A3G8 (antibody, V domains shown) VH: QVQLKESGPGLVAPSQSLSITCTVSGFSLSSYSVYWVRQPPGKGLEWLGVIWAGGSTNYNSALMSRLSINKDKSKSQVFLKMNSLQTDDSAIYYCAMRWLPRGLDFWGQGTSVTVSS VL: DIVMTQSHKFMSTSVGDRVSITCKASQDVGTAVAWYQQKPGQSPKLLIYWASTRHTGVPDRFTGSGSGTDFTLTISNVQSEDLADYFCQQYSTYYTFGGGTKLEIK	15	76200	2.81	1950	9.74	42200								
89F11E3 (antibody, V domains shown, Mouse monoclonal antibody from hybridoma subclone) VH: QVQLQQSGAELARPGASVKMSCKASGYTFTSSTIHWVKQRPGQGLAWIGYIVPSTGYTNYNQKFKDKATLTADKSSSTAYMQLTSLTSEDSAVYYCARSDGYPFGYSMAYWGQGTSVTVSS VL: DIQMNQSPSSLSASLGDTITITCHASQNINVWLSWYHQKPGNIPKLLIYKASNLHTGVPSRFSGSGSGTGFTLTISRLQPEDIATYYCQQGQSYPFTFGSGTKLEIK							98.8	16500	98.1	999	74.6	1100	96.7	19200
ch89F11E3 (antibody, V domains shown) VH: QVQLQQSGAELARPGASVKMSCKASGYTFTSSTIHWVKQRPGQGLAWIGYIVPSTGYTNYNQKFKDKATLTADKSSSTAYMQLTSLTSEDSAVYYCARSDGYPFGYSMAYWGQGTSVTVSS VL: DIQMNQSPSSLSASLGDTITITCHASQNINVWLSWYHQKPGNIPKLLIYKASNLHTGVPSRFSGSGSGTGFTLTISRLQPEDIATYYCQQGQSYPFTFGSGTKLEIK	14.2	77300	2.41	2600	278	40500								
82A1C10 (antibody, V domains shown, Mouse monoclonal antibody from hybridoma subclone) VH: QVQLKESGPGLVAPSQSLSITCTVSGFSLTNYAVTWVRQPPGKGLEWLGVIWGDGSTYYHSALVSRLSITKDNSRTQVLLKLNSLQTDDTARYYCAKGGYSPFAYWGQGTLVTVSA VL: DVVMTQTPLSLPVSLGDQASISCRSSQSLVHSNGNTYLHWYLQKPGQSPKLLIFKVSNRFSGVPDRFSGSGSGTDFTLKISRVEAEDLGVYFCSQNTHVPFTFGSGTKLEIK							94.2	1070	94.8	550	4.5	119	99.4	8090

Second part, the binder after the results:

EC50 (mouse GPRC5D [1]) [nM]	Top (mouse GPRC5D [1])	EC50 (human GPRC5D [2]) [nM]	Top (human GPRC5D [2])	EC50 (cynomolgus monkey GPRC5D [3]) [nM]	Top (cynomolgus monkey GPRC5D [3])	% Positive (cynomolgus monkey GPRC5D [4]) [%]	MFI (cynomolgus monkey GPRC5D [4])	% Positive (human GPRC5D [5]) [%]	MFI (human GPRC5D [5])	% Positive (mouse GPRC5D [6]) [%]	MFI (mouse GPRC5D [6])	% Positive (human GPRC5D [7]) [%]	MFI (human GPRC5D [7])	Binder
12.3	55300	8.51	2250	13.6	61600									ch90G6H3 (antibody, V domains shown) VH: QAYLQQSGAELVRSGASVKMSCKASGYTFTSYIMHWVKQTPGQGLEWIGYIYPGNGGTNYNQKFKDKATLSADTSSSTAYMQINSLTSEDSAVYFCARWGLRQGFAYWGQGTLVSVSA VL: DIVMTQSQKFMSTSVGDRVSVTCKASQNVGGNVAWYQQKPGQSPKALIYSTSYRNSGVPDRFTGSGSGTDFTLTISNVQSEDLAEYFCQQYNSYPFTFGSGTKLEIR
38.6	57600	4.85	3940	9.2	68900									ch101B3G3 (antibody, V domains shown) VH: EVQLQQSGPELVKPGASMKISCKASGYSFTGYTMNWVKQSHGKNLEWIGLINPYNGGTRYNQKFKDKATLTVDKSSSTAYMELLSLTSEDSAVYYCARWLLRYAMDYWGQGTSVTVSS VL: DIVMTQSQKFMSTSVGDRVSITCKASQNVGNAVAWYQQKPGHSPKLLISSASNRKNGVPDRFTGSGSGTDFTLTVSNMQSEDLADYFCQQYSDSSWTFGGGTKLEIK
